The DeepSol protein solubility set

Test: soluble on expression in E. coli; label from the status in PepcDB or PDB records

Row | Sequence | soluble on expression in E. coli
1 | MGSDKIHHHHHHMVKCIEEYVQVDDFKMYSKVFQGKKLQPVIIMEAGYGDYSKTWDHIAEELTEFGTVLTYDRAGLGKSGNSSKRRISSEMIKDLRSCLEKLQLKPPYIFVGHSFGGINARLFATFYSEDMLGIVLVDSTPENYKKDFLLIMSPEFQEAYYKQFVHESSYKEFMFSLGEADKHCQSMRNIPLVVLAAGKKAYYSQEAQMKWLQLQEELLRLSNNHKFIIAEQSGHYIQKDEPHYIIDAVKWIIEVGEG | not soluble
2 | MGSDKIHHHHHHAIRANVMASNVDSLYSKVDTLSEQSKKNNVVREEFDYSALSFYVENFAKEYLNYNSKASDEAKKARIDRLSKYLSLDVKDVDETENLQGNVLRTFKNTSLSRIEKMEDCYLVYLNVNYELEKDKKTENVTQNMVLPIQVKDNLFSIVGRPYFVASSLPQGKTVSLKQTENSIDVDGKEKQSIEKFLKMFFTKYSVGNKQELMLLMKNPTTTAGQDSFVSIDSGDMKFFDTKQKGVTGVQVSVTFSDKTTKLTHTEDFSLWLSKTENSYFINTMKHYFTEKEGND | not soluble
3 | MIFYFSGTGNSKWIANQLSKEQQEDLFFIPDAWKNDTWEFSLREDEKIGFVFPVYSWAPPVIVQEFIRKLVLKGYQQQYLFFVCSCGDDTGLTRQVMEKALAARGWRCNAGFSVIMPNNYVLFLGFDVDSKELEKKKLAEAVPALEKVSRLITGRETVFACKEGSLPFIKTRIINPLFVRYQMSPKPFHATSECIGCKRCEKSCPVGNITMKERRPVWGKNCTACLACYHVCPQHAVQYGKKTKGKGHYFNPDSAYLEHHHHHH | soluble
4 | MTEVRRRGRPGQAEPTAQKGAQALERGIAILQYLERSGGSSSVSDISGSLDLPLSTTFRLLKVLQAADFVYQDSQLGWWHIGLGVFNVGSAYIHNRDVLSVAGPFMHRLMLLSGETVNVAIRNGNEAVLIGQKECKSMVRMCAPLGSRLPLHASGAGKALLYPLTEEELVGIVVNTGLRRFTPTTLVDLPILLKNLEQAREQGYTVDQEEHVVGLNCIASAIYDDAGSVVAAISISGPASRLTEDRFISQGELVRDTAKDISTALGLKPPVA | not soluble
5 | MLSVGRGIADITGEAADCGMLGYGKSDQRTAGIHQRLRSRAFVFRDDSQDGDARLLLIVAELPLPMQNVNEEVLRRLADLYGDTYSEQNTLITATHTHAGPGGYCGYLLYNLTTSGFRPATFAAIVDGIVESVEHAHADVAPAEVSLSHGELYGASINRSPSAFDRNPPADKAFFPKRVDPHTTLVRIDRGEATVGVIHFFATHGTSMTNRNHLISGDNKGFAAYHWERTVGGADYLAGQPDFIAAFAQTNPGDMSPNVDGPLSPEAPPDREFDNTRRTGLCQFEDAFTQLSGATPIGAGIDARFTYVDLGSVLVRGEYTPDGEERRTGRPMFGAGAMAGTDEGPGFHGFRQGRNPFWDRLSRAMYRLARPTAAAQAPKGIVMPARLPNRIHPFVQEIVPVQLVRIGRLYLIGIPGEPTIVAGLRLRRMVASIVGADLADVLCVGYTNAYIHYVTTPEEYLEQRYEGGSTLFGRWELCALMQTVAELAEAMRDGRPVTLGRRPRPTRELSWVRGAPADAGSFGAVIAEPSATYRPGQAVEAVFVSALPNNDLRRGGTYLEVVRREGASWVRIADDGDWATSFRWQRQGRAGSHVSIRWDVPGDTTPGQYRIVHHGTARDRNGMLTAFSATTREFTVV | soluble
6 | MGSDKIHHHHHHMVKNNNIAVKVEHVSKSFKLPTESSQSLRTTLVNLFKGIKGYVEYNVLQDISFEVEKGDFFGIVGRNGSGKSTLLKILSQIYVPERGTVAVDGKLVSFIELGVGFNPELTGKENVYLNGAMLGFTAEEIDAMYDDIVEFAELSEFMNQKLKNYSSGMQVRLAFSVAIKAQGDILILDEVLAVGDEAFQRKCNDYFLERKKSGKTTILVTHDMGAVKKYCNKALLIEKGYVKALGEPDDVANQYSFDNVLASISEVTENEEPLHQSDIVKDLQINLVSKNQIEPDESIEIEFRYTVLEDIETHVAFTFLDLERHFDVYNDNSMDLKTFGKGEKFFRVKCKLPSINQAKLKMAVSVRNSNKQPLLFAKTSDTPAIFISRKFSTDNIAEEDAATGFIQRNSQWELLD | not soluble
7 | MESKVVVPAQGKKITLQNGKLNVPENPIIPYIEGDGIGVDVTPAMLKVVDAAVEKAYKGERKISWMEIYTGEKSTQVYGQDVWLPAETLDLIREYRVAIKGPLTTPVGGGIRSLNVALRQELDLYICLRPVRYYQGTPSPVKHPELTDMVIFRENSEDIYAGIEWKADSADAEKVIKFLREEMGVKKIRFPEHCGIGIKPCSEEGTKRLVRAAIEYAIANDRDSVTLVHKGNIMKFTEGAFKDWGYQLAREEFGGELIDGGPWLKVKNPNTGKEIVIKDVIADAFLQQILLRPAEYDVIACMNLNGDYISDALAAQVGGIGIAPGANIGDECALFEATHGTAPAYAGQDKVNPGSIILSAEMMLRHMGWTEAADLIVKGMEGAINAKTVTYDFERLMDGAKLLKCSEFGDAIIENM | soluble
8 | MSSLGNQSEKNSNNKFSDNVPLAQHEIWKEKYESLVTEHENLVKEHETLIKTLELIEKHEITLEDLVKKKQREALVGKEEIEKFDKEIGERKKMQEMLDKDLEYLKSCEETVMNGMSSGPSGARVADKRNVNKFESQEGNFKCFLICV | not soluble
9 | MAHHHHHHMAFTDAVAGKTSLPPPVAIIVGHNIDASAMPLTYERNRLVIDMLQHYACPVFSHKKSGDAMNTVSSDVFEWVLEPLPVVGVEDMTAFHDRAYLNYLSIREALSEVDERASTVKRSRAEGIQPPVSRRSSAQNQPPLRVLPDLVPIPTDEEYGLVNENMPFVGMWRTIQATVSGTLLAARLLAQPGRFAAIHWFGGRHHAKQSTAGGFCFANDVVLGVLELKKLLSSDKKGILVVDVDAHHGDGTQSAFLHDNSVLTLSMHAHGVGIFPGSGGIEEIGAGLGRGFTMNVPLPEGATDILAVTLMYRSIHFAFKKLGEGLAAIVIVCGSDALSGDPLGALNLTVGGMQSIIRLLLKEAARRSLKVLLLGGGGYVDTSCARLAGVVTKDVLSCAAAMRLGKTEYFGDSANLGDNLGVAVPEGCEYFTRYGPSFLMHGLPPARVSKLYRLPYGSPLFMRMQRAATKEALRRRRNQEQDEEEEEEEEEEEEEEEEEEEEEEEEEVEEEEGEGEEEA | not soluble
10 | ASLDSEVELLPHTSFAESLGPWSLYGTSEPVFADGRMCVDLPGGQGNPWDAGLVYNGVPVGEGESYVLSFTASATPDMPVRVLVGEGGGAYRTAFEQGSAPLTGEPATREYAFTSNLTFPPDGDAPGQVAFHLGKAGAYEFCISQVSLTTSAT | soluble
11 | MRGSHHHHHHGSMEEYYMKLALDLAKQGEGQTESNPLVGAVVVKDGQIVGMGAHLKYGEAHAEVHAIHMAGAHAEGADIYVTLEPCSHYGKTPPCAELIINSGIKRVFVAMRDPNPLVAGRGISMMKEAGIEVREGILADQAERLNEKFLHFMRTGLPYVTLKAAASLDGKIATSTGDSKWITSEAARQDAQQYRKTHQSILVGVGTVKADNPSLTCRLPNVTKQPVRVILDTVLSIPEDAKVICDQIAPTWIFTTARADEEKKKRLSAFGVNIFTLETERIQIPDVLKILAEEGIMSVYVEGGSAVHGSFVKEGCFQEIIFYFAPKLIGGTHAPSLISGEGFQSMKDVPLLQFTDITQIGRDIKLTAKPTKE | soluble
12 | MKVIEVTHPIQSNQFITENVAMAFGFFDGMHRGHDKVFQVLDEKAKEHQLKKAVMTFDPHPSVVLNPERKRTTYLTPLSDKLEMIAEHGIDYCIVINFSSRFANVTSDDFIKNYIINNHVKEVIAGFDFTFGKFGKGNMTVLQESKAFNTTIVGKQEMDSEKISTTAIRQALTDGHLQKANDELGYIYRIKGTVVQGEKRGRTIGFPTANVQPSDDYVLPKKGVYAVSMEIGPESKLHRGVANVGVKPTFHDPTRAELVIEVNIFDFNENIYGERVTVYWHHFLRPEVKFDGIDPLVKQMNEDKAQAKHLLSIDFDDDISYNI | not soluble
13 | MSLCDVLQMARSTYYYEAKIRDDQDEELSELIVDIFKNSRDNYGQRKIKIELRKKGWTVSRRRIGRIMKEQGLVSKYTVAQFKPAKTSCNESEIGNTLNREFNQEQELKVVVSDLTYVRVQQKWHYICVLVDLYNREIIGYSAGPHKSAELVQRAFASVKYNLQRLELFHTDRGSEFKNKLIDQALETFGIERSLSEKGTPYDNAVAEATFKTIKTEFVRGAVFSSQQELDLELFDYVHWFNTIRIHGSLDYLTPTEYKLMNLEGHHHHHH | not soluble
14 | MTLVVPFDGSELAEAALVRAAEFGTVFEEDVLAVSVIRNGNAKYAREHDWIGPNEDFDLEAVVTSLHEQVIDLCPSSDFRHTVVDRYAPAGAVAKAIRKLAKREDASMVFIGSENAGHLVTSISSVGGSIASDDAYDVVIVRHR | not soluble
15 | MQIFRDVSKLLVERVDPKILNLFRLLGKFGDEVNMPVYVVGGFVRDLLLGIKNLDIDIVVEGNALEFAEYAKRFLPGKLVKHDKFMTASLFLKGGLRIDIATARLEYYESPAKLPDVEMSTIKKDLYRRDFTINAMAIKLNPKDFGLLIDFFGGYRDLKEGVIRVLHTLSFVDDPTRILRAIRFEQRFDFRIEETTERLLKQAVEEGYLERTTGPRLRQELEKILEEKNPLKSIRRMAQFDVIKHLFPKTYYTPSMDEKMENLFRNIPWVEENFGEVDRFYAVLHVFLEFYDDESWKEVRDRYSLRRNLINEIRHVEKSAPALLEMLSERVPASFVYPLVKGVSNETICHFLAYLSGEKEGLFKSYLLKIKNTKLEKINGEYLIRKGITSGKIIGEVLEKILMKKLDGDTRDEEEILEEVLASLETEGKLAAALEHHHHHH | soluble
16 | VLLAIDVRNTHTVVGLLSGMKEHAKVVQQWRIRTESEVTADELALTIDGLIGEDSERLTGTAALSTVPSVLHEVRIMLDQYWPSVPHVLIEPGVRTGIPLLVDNPKEVGADRIVNCLAAYDRFRKAAIVVDFGSSICVDVVSAKGEFLGGAIAPGVQVSSDAAAARSAALRRVELARPRSVVGKNTVECMQAGAVFGFAGLVDGLVGRIREDVSGFSVDHDVAIVATGHTAPLLLPELHTVDHYDQHLTLQGLRLVFERNLEVQRGRLKTAR | soluble
17 | ARVLVVGDVMLDRYWFGEVDRISPEAPVPVVRVARREDRLGGAANVARNVAALGAQVTLIGVVGADEVGLRIERMAAEEGVRTDLVSDTEHPTTLKMRVLGRQQQLLRVDFEQHPEPAALDGISAAVARQLAQHDIVVLSDYAKGVLDRVESIIAAAVGHSLPVLVDPKGDHYERYRGATLVTPNRAEMREAVGRWKTEDELAERAQRLRLDLDLEALLVTRSEQGMTLFTDAGRDHADAAAHEVYDVSGAGDTVLATLAVMRAVGLSWGDAMRWANRAGGIVVGKLGTSVVTAAEL | not soluble
18 | MGSDKIHHHHHHMSQILQNFIKQAQYNPLHSLEEWEEDLLNRYPDPHSIVKEGKTTQEYRNYETPTRETVKEFYRLNHINQTYNFVLEKEKNFLKFDKKEMSVWDAVEFLNQLVDDSDPDTEMDQLQHLLQTSEAIRADGHPDWMVLTGFFHDMGKVLCLFGEPQWATVGDTYPVGCAFSDKIVFSEFFQENPDYNNPNYNTKYGIYEPNCGLINVHISWGHDEYFYQMMKNYLPEPALYMLRYHSFYPQHRENAYKHLMDNHDREMFKWVKLFNPYDLYSKNPTPPDWQKLRPYYEDLVAKYLPATLKF | not soluble
19 | MNQKYILSANNNSLIEEIHNTVQSIGYCIVRGLNLNHLDGSRRNKKLFDFLSQLGMLTNHKGDGFKSIFWDIKY | not soluble
20 | SLVASGYPLSQTFGHGDIHFLPPELADARTSKIKVPFQSLLCDGEDEFRKGARYVLREGVDFIKIFVTGGVASQKDKPEFPQMTRGEIAAVVEEARRAGRLVHAHAESSEGYINAVEEGVKTLAHGMDLNQDAINLSVEKDVTLIPTLSIVDVALKFGPSNNLPEWMLEKLKEVHEIHAESIKRAYRERVRLATGTDFFIGAKEVQLYGLNSLEIKLLVGLGVKPMDALKAVIKEGEIVKQS | not soluble
